Measurements published in the supplement of paper PMC9112550, “Optimization of the antimicrobial peptide Bac7 by deep mutational scanning” (BMC Biology, 2022).

Test system: Escherichia coli TOP10
Test: shrunken log2 fold change of peptide-encoding DNA abundance (4.5 h post-induction vs induction); higher = less antimicrobial activity (less host growth inhibition)
Settings: time post-induction: 4.5 h; library: site-saturation at positions 5, 18, 19, 20
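Note: peptides expressed intracellularly from a pBAD plasmid library in pooled LB shake-flask culture, induced with 0.3% L-arabinose, DNA abundance read by NGS, three biological replicates, DESeq2 with apeglm shrinkage.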

Row | Sequence | shrunken log2 fold change
1 | RRIRERPPRLPRPRPRPHNWPRP | -0.363
2 | RRIRERPPRLPRPRPRPHPKPRP | 0.0177
3 | RRIRERPPRLPRPRPRPHQQPRP | 0.119
4 | RRIRERPPRLPRPRPRPHQYPRP | -0.00989
5 | RRIRERPPRLPRPRPRPHRPPRP | -0.123
6 | RRIRERPPRLPRPRPRPHRTPRP | -5.56e-05
7 | RRIRERPPRLPRPRPRPHTNPRP | -0.466
8 | RRIRERPPRLPRPRPRPHWHPRP | -0.298
9 | RRIRERPPRLPRPRPRPHWIPRP | -0.117
10 | RRIRERPPRLPRPRPRPHWKPRP | -0.0167
11 | RRIRERPPRLPRPRPRPICCPRP | -0.133
12 | RRIRERPPRLPRPRPRPIDAPRP | 0.0409
13 | RRIRERPPRLPRPRPRPIDKPRP | -0.321
14 | RRIRERPPRLPRPRPRPIDPPRP | 0.0954
15 | RRIRERPPRLPRPRPRPIFQPRP | -0.00561
16 | RRIRERPPRLPRPRPRPIFTPRP | -0.195
17 | RRIRERPPRLPRPRPRPIGYPRP | -0.00962
18 | RRIRERPPRLPRPRPRPIHCPRP | -0.118
19 | RRIRERPPRLPRPRPRPIHYPRP | -0.0107
20 | RRIRERPPRLPRPRPRPIIAPRP | -0.106
21 | RRIRERPPRLPRPRPRPIISPRP | -0.209
22 | RRIRERPPRLPRPRPRPIKEPRP | 0.0101
23 | RRIRERPPRLPRPRPRPILLPRP | -0.336
24 | RRIRERPPRLPRPRPRPILYPRP | -0.615
25 | RRIRERPPRLPRPRPRPIMFPRP | -0.193

Row | Sequence | shrunken log2 fold change
26 | RRIRERPPRLPRPRPRPIMLPRP | -0.227
27 | RRIRERPPRLPRPRPRPIMRPRP | -0.102
28 | RRIRERPPRLPRPRPRPIPGPRP | -0.124
29 | RRIRERPPRLPRPRPRPIQHPRP | -0.529
30 | RRIRERPPRLPRPRPRPIQLPRP | -0.446
31 | RRIRERPPRLPRPRPRPIRMPRP | -0.00149
32 | RRIRERPPRLPRPRPRPIRSPRP | -0.112
33 | RRIRERPPRLPRPRPRPISRPRP | -0.0122
34 | RRIRERPPRLPRPRPRPITCPRP | 0.0303
35 | RRIRERPPRLPRPRPRPITGPRP | -0.0908
36 | RRIRERPPRLPRPRPRPIVMPRP | -0.86
37 | RRIRERPPRLPRPRPRPIWLPRP | -0.0129
38 | RRIRERPPRLPRPRPRPIYYPRP | -0.726
39 | RRIRERPPRLPRPRPRPKDTPRP | -0.115
40 | RRIRERPPRLPRPRPRPKDVPRP | -0.152
41 | RRIRERPPRLPRPRPRPKESPRP | 0.0252
42 | RRIRERPPRLPRPRPRPKFVPRP | -0.287
43 | RRIRERPPRLPRPRPRPKGYPRP | 0.016
44 | RRIRERPPRLPRPRPRPKHLPRP | -0.202
45 | RRIRERPPRLPRPRPRPKHWPRP | 0.0518
46 | RRIRERPPRLPRPRPRPKLIPRP | -0.0786
47 | RRIRERPPRLPRPRPRPKPAPRP | 0.666
48 | RRIRERPPRLPRPRPRPKRSPRP | -0.0414
49 | RRIRERPPRLPRPRPRPKRTPRP | 0.108
50 | RRIRERPPRLPRPRPRPKRWPRP | 0.35

Row | Sequence | shrunken log2 fold change
51 | RRIRERPPRLPRPRPRPKSEPRP | 0.196
52 | RRIRERPPRLPRPRPRPKSPPRP | 0.163
53 | RRIRERPPRLPRPRPRPKSRPRP | 0.0203
54 | RRIRERPPRLPRPRPRPKVLPRP | 0.0059
55 | RRIRERPPRLPRPRPRPKWWPRP | 0.397
56 | RRIRERPPRLPRPRPRPKYNPRP | -0.7
57 | RRIRERPPRLPRPRPRPLAMPRP | -0.246
58 | RRIRERPPRLPRPRPRPLAVPRP | -0.0594
59 | RRIRERPPRLPRPRPRPLEGPRP | -0.363
60 | RRIRERPPRLPRPRPRPLFPPRP | -0.264
61 | RRIRERPPRLPRPRPRPLFQPRP | -0.271
62 | RRIRERPPRLPRPRPRPLGEPRP | 0.0918
63 | RRIRERPPRLPRPRPRPLGKPRP | 0.189
64 | RRIRERPPRLPRPRPRPLGSPRP | -0.0249
65 | RRIRERPPRLPRPRPRPLHKPRP | -0.0653
66 | RRIRERPPRLPRPRPRPLISPRP | -0.0142
67 | RRIRERPPRLPRPRPRPLLDPRP | -0.0911
68 | RRIRERPPRLPRPRPRPLLKPRP | -0.439
69 | RRIRERPPRLPRPRPRPLLWPRP | -0.0136
70 | RRIRERPPRLPRPRPRPLQNPRP | -0.116
71 | RRIRERPPRLPRPRPRPLSYPRP | -0.193
72 | RRIRERPPRLPRPRPRPLVGPRP | -0.198
73 | RRIRERPPRLPRPRPRPLVIPRP | -0.169
74 | RRIRERPPRLPRPRPRPLYGPRP | -0.136
75 | RRIRERPPRLPRPRPRPMAPPRP | 1.59

Row | Sequence | shrunken log2 fold change
76 | RRIRERPPRLPRPRPRPMARPRP | 0.116
77 | RRIRERPPRLPRPRPRPMCYPRP | -0.403
78 | RRIRERPPRLPRPRPRPMDMPRP | -0.189
79 | RRIRERPPRLPRPRPRPMDWPRP | 0.0151
80 | RRIRERPPRLPRPRPRPMEQPRP | -0.136
81 | RRIRERPPRLPRPRPRPMETPRP | 0.015
82 | RRIRERPPRLPRPRPRPMFQPRP | -0.952
83 | RRIRERPPRLPRPRPRPMFTPRP | -0.278
84 | RRIRERPPRLPRPRPRPMFWPRP | 0.0831
85 | RRIRERPPRLPRPRPRPMFYPRP | -0.0786
86 | RRIRERPPRLPRPRPRPMGIPRP | -0.113
87 | RRIRERPPRLPRPRPRPMGNPRP | 0.0248
88 | RRIRERPPRLPRPRPRPMIKPRP | -1.07
89 | RRIRERPPRLPRPRPRPMIMPRP | -0.00163
90 | RRIRERPPRLPRPRPRPMKNPRP | -0.22
91 | RRIRERPPRLPRPRPRPMLNPRP | -0.106
92 | RRIRERPPRLPRPRPRPMMFPRP | -0.0555
93 | RRIRERPPRLPRPRPRPMNTPRP | -0.0609
94 | RRIRERPPRLPRPRPRPMPCPRP | -0.0207
95 | RRIRERPPRLPRPRPRPMPFPRP | 0.00529
96 | RRIRERPPRLPRPRPRPMPVPRP | -0.107
97 | RRIRERPPRLPRPRPRPMQEPRP | 0.216
98 | RRIRERPPRLPRPRPRPMRIPRP | 0.257
99 | RRIRERPPRLPRPRPRPMSVPRP | -0.158
100 | RRIRERPPRLPRPRPRPMTIPRP | -0.155

Row | Sequence | shrunken log2 fold change
101 | RRIRERPPRLPRPRPRPMVLPRP | 0.104
102 | RRIRERPPRLPRPRPRPMWIPRP | -0.102
103 | RRIRERPPRLPRPRPRPMYFPRP | -0.251
104 | RRIRERPPRLPRPRPRPMYYPRP | -0.241
105 | RRIRERPPRLPRPRPRPNACPRP | -0.00102
106 | RRIRERPPRLPRPRPRPNALPRP | -0.247
107 | RRIRERPPRLPRPRPRPNATPRP | 0.287
108 | RRIRERPPRLPRPRPRPNCRPRP | -0.238
109 | RRIRERPPRLPRPRPRPNDKPRP | -0.507
110 | RRIRERPPRLPRPRPRPNDPPRP | -0.488
111 | RRIRERPPRLPRPRPRPNEQPRP | -0.215
112 | RRIRERPPRLPRPRPRPNFDPRP | -0.145
113 | RRIRERPPRLPRPRPRPNGHPRP | 0.0479
114 | RRIRERPPRLPRPRPRPNHQPRP | -0.259
115 | RRIRERPPRLPRPRPRPNHRPRP | -0.101
116 | RRIRERPPRLPRPRPRPNIEPRP | -0.136
117 | RRIRERPPRLPRPRPRPNIHPRP | -0.637
118 | RRIRERPPRLPRPRPRPNIMPRP | -0.444
119 | RRIRERPPRLPRPRPRPNISPRP | -1.14
120 | RRIRERPPRLPRPRPRPNKTPRP | 0.0491
121 | RRIRERPPRLPRPRPRPNMTPRP | -0.276
122 | RRIRERPPRLPRPRPRPNNNPRP | -0.977
123 | RRIRERPPRLPRPRPRPNNYPRP | -0.821
124 | RRIRERPPRLPRPRPRPNPPPRP | 0.181
125 | RRIRERPPRLPRPRPRPNPTPRP | 0.00617

Row | Sequence | shrunken log2 fold change
126 | RRIRERPPRLPRPRPRPNRNPRP | -1.09
127 | RRIRERPPRLPRPRPRPNRWPRP | 0.0283
128 | RRIRERPPRLPRPRPRPNSIPRP | -0.317
129 | RRIRERPPRLPRPRPRPNTHPRP | -0.704
130 | RRIRERPPRLPRPRPRPNVYPRP | -0.439
131 | RRIRERPPRLPRPRPRPNWWPRP | 0.196
132 | RRIRERPPRLPRPRPRPPCWPRP | 0.0636
133 | RRIRERPPRLPRPRPRPPEIPRP | 0.115
134 | RRIRERPPRLPRPRPRPPEPPRP | 0.333
135 | RRIRERPPRLPRPRPRPPIAPRP | 0.13
136 | RRIRERPPRLPRPRPRPPIHPRP | -0.502
137 | RRIRERPPRLPRPRPRPPIVPRP | -0.302
138 | RRIRERPPRLPRPRPRPPKGPRP | -0.16
139 | RRIRERPPRLPRPRPRPPKIPRP | -0.28
140 | RRIRERPPRLPRPRPRPPLPPRP | 0.151
141 | RRIRERPPRLPRPRPRPPMMPRP | -0.0743
142 | RRIRERPPRLPRPRPRPPNDPRP | -0.462
143 | RRIRERPPRLPRPRPRPPQHPRP | 0.128
144 | RRIRERPPRLPRPRPRPPRAPRP | 0.453
145 | RRIRERPPRLPRPRPRPPRLPRP | 0.178
146 | RRIRERPPRLPRPRPRPPSHPRP | -0.209
147 | RRIRERPPRLPRPRPRPPSLPRP | -0.0799
148 | RRIRERPPRLPRPRPRPPSSPRP | 0.0527
149 | RRIRERPPRLPRPRPRPPTFPRP | -0.767
150 | RRIRERPPRLPRPRPRPPVHPRP | -0.145
